Source: patent US20230391853A1 (FAPON BIOTECH, published 2023)

Molecular target: T1, 2019-nCoV N protein antigen (2019-nCoV (novel coronavirus), UniProt P0DTC9 1-419)
T1 construct: Coated on plates in ELISA; in solution in the AMC sensor assay; also called N protein of the novel coronavirus; nucleocapsid protein (N protein)
Assay: AMC sensor kinetics, antibody captured
Protocol: Operational process: equilibrium was performed in buffer 1 (PBST) for 60 s, the antibody was cured in an antibody solution for 300 s, incubation was performed in buffer 2 (PBST) for 180 s, binding was performed in an antigen solution for 420 s, dissociation was performed in buffer 2 for 1200 s, sensor regeneration was performed with a 10 mM pH 1.69 GLY solution and buffer 3, and data were outputted. KD represents an equilibrium dissociation constant, that was, the affinity; kon represents the binding rate; and kdis represents the dissociation rate.

B1: WT (antibody, mouse IgG1, kappa, V domains shown)
VH: DVQLVESGGGLVQPGGSRKLSCAASGVTFSTFAMHWVRQAPEKGLEWVAYLNSASNLIYYADTLKGRFTISRDNPKNTLFLQMTSLRSEDTAMYYCTRHAMDYWGQGTSVTVSS
VL: DIVLTQSPASLAVSLGQRATISCKASQSIDYDGDSFMNWFQQKPGQPPKLLIYDASNVESGIPARFSGSGSGTDFTLNIHPVEEEDAATYYCQHSNEDPYTFGGGTKLEIKR
notes: also called VT; antibody in Embodiment 1
Q: With B1 as the binder, how does the Kd read?
A: 8.03 nM

Q: And the koff?
A: 0.00141 s⁻¹

Q: And the kon?
A: 175000 M⁻¹ s⁻¹
